Protein stability index data for 29 sequences are collected here from the supplement of paper PMC10567573.

± gives the standard deviation.

A short description of the series: protein stability index of a GFP-peptide fusion (GPS, HEK-293T) (PSI 1-6); higher = more stable.
Setting [1] is: treatment: DMSO, c terminus: a fixed tail appended.
Where [2] appears, read: treatment: MLN4924 1 uM, 8 h, c terminus: a fixed tail appended.
Where [3] appears, read: treatment: DMSO, c terminus: native.
Setting [4] is: treatment: MLN4924 1 uM, 8 h, c terminus: native.
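Also: 24-mer peptide tiles fused after GFP, lentivirally expressed, FACS-sorted into six equal bins by GFP/DsRed ratio, decoded by Illumina sequencing, PSI is the read-weighted mean bin number.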

For LLPRQPLPLGIKVYEDETKVVHAV [PALM], the protein stability index is 3.47 ± 0.28 under setting [1] and 3.48 ± 0.12 under setting [2].
Take LLSTSLDAKDELEERLERCMSIVT [INTS3]: the protein stability index is, setting by setting: under setting [1], 3.38 ± 0.22; under setting [2], 3.51 ± 0.37.
For LLYDDLYDDDIDDEDEEEEDADCY [UBE2R2], in that order: 4.26 ± 0.18 and 4.41 ± 0.27.
Sequence LNVRGGKPDDITVLLSIVAEYTD [PPTC7] registered a protein stability index under setting [3] of 3.45 ± 0.95 and a protein stability index under setting [4] of 2.5 ± 0.44.
For LPAQPNRKPGMSSTARRSRAASSQ [CHMP4C], the protein stability index was 4.88 ± 0.16 under setting [1] and 4.87 ± 0.16 under setting [2].
For LPLALYTATFAVHFMVLSKSGPGD [POMT2], the protein stability index was determined as 3.34 ± 0.33 under setting [1] and 3.01 ± 0.61 under setting [2].
For LPLTARWEYMHSPSENSKEAEILE [CPOX], in that order: 4.94 ± 0.32 and 5.02 ± 0.17.
Taken in the same sequence, the figures for LPPPSAPSLQPSRKLSPTEPKNYG [SCAMP3] were 4.79 ± 0.16 and 4.86 ± 0.24.
On to LPPVSTSFTTGGLRIPFPRDCGEE [TNXB], for which the protein stability index amounted to 4.62 ± 0.27 under setting [1] and 4.43 ± 0.18 under setting [2].
Regarding LPVASSSTLLPLAPSNSTSLNSTF [NFE2L1], the protein stability index runs as follows: under setting [1], 3.89 ± 0.11; under setting [2], 3.65 ± 0.24.
For the sequence LPVYLKKDPAYFYGYVYFRQVRDK [DENND6A], the protein stability index by setting is: under setting [1], 2.59 ± 0.57; under setting [2], 2.53 ± 0.47.
For LQKQGKYSGVGLLDHMVSIYLLI [RNF180], the protein stability index is 2.31 ± 0.92 under setting [3] and 2.88 ± 0.81 under setting [4].
Turning to LQLFHQDGTFSPVTLALFFVLYFL [CLCN6], the protein stability index by setting is: under setting [1], 2.45 ± 0.64; under setting [2], 2.13 ± 0.47.
For the sequence LQNQNFPYPVLFHNIFLLGGSSTS [NLN], the protein stability index amounted to 2.15 ± 0.92 under setting [1] and 2.33 ± 0.4 under setting [2].
Taken in the same sequence, the figures for LQTGPLLGRPDSLELQRQREARKR [RSPH3] were 4.83 ± 0.2 and 5.08 ± 0.31.
As to LRADNAFMLLTQARLFDEPQLASL [BTBD1], the protein stability index reads like this: under setting [1], 2.46 ± 0.85; under setting [2], 2.34 ± 0.47.
Taken in the same sequence, the figures for LRADQEKERKKREERERKRRKEEE [FAF2] were 5.435 ± 0.02 and 5.35 ± 0.31.
Turning to LRAGSSEFDSEHNLTSNEGHSLKN [RASAL3], the protein stability index is, setting by setting: under setting [1], 4.67 ± 0.42; under setting [2], 4.87 ± 0.64.
In turn, LRDPATITTLRVPVLRPMDLMVEA [PPP2R2B] showed a protein stability index under setting [1] of 2.85 ± 0.15 and a protein stability index under setting [2] of 2.94 ± 0.37.
In the case of LRPTSVDPALRRRRRGPRNKKRGW [NOP53], the protein stability index was 4.64 ± 0.56 under setting [1] and 4.29 ± 0.23 under setting [2].
For LRYQFSRPGPQSVPLQLSAHWQCG [FCHO1], the protein stability index came to 2.2 ± 0.09 under setting [1] and 2.12 ± 0.13 under setting [2].
Taken in the same sequence, the figures for LSAANVCLDPIIYFFLCQPFREIL [P2RY14] were 3.28 ± 0.74 and 2.58 ± 0.77.
Taken in the same sequence, the figures for LSAGSPPVPPGWNPNSSSGKGSGG [DLX1] were 4.86 ± 0.24 and 4.72 ± 0.1.
For LSALLRATPGEYSVNICGMNEHPV [SPAG8], in that order: 2.27 ± 0.27 and 2.42 ± 0.16.
LSKQAKFAYKDEYEKFKLYLTIIL [TMEM120A]: the protein stability index amounted to 2.61 ± 0.36 under setting [1] and 2.48 ± 0.54 under setting [2].
For the sequence LSLQKEQLQLKIIEIEDEAEKWQK [TRIM29], the protein stability index runs as follows: under setting [1], 3.87 ± 0.094; under setting [2], 3.9 ± 0.43.
For LSMLLTLKCEMNQMSGEPLDKLNF [ACSBG2], in that order: 2.83 ± 0.46 and 2.29 ± 0.16.
Consider LSPEVLRKEAYGKPVDIWACGVIL [CAMK2B], for which the protein stability index was 2.62 ± 0.71 under setting [1] and 2.51 ± 0.4 under setting [2].
Taken in the same sequence, the figures for LSQSPEPGRRGDPDTAPPSERPLE [RTN2] were 5.56 ± 0.24 and 5.56 ± 0.15.
